Data from paper PMC2646901, “Characterisation of receptor binding by the chemotaxis inhibitory protein of Staphylococcus aureus and the effects of the host immune response” (Molecular Immunology, 2007).

B1: human C5a receptor (C5aR) (receptor)
chain: MDSFNYTTPDYGHYDDKDTLDLNTPVDKTSNTLRVPDILALVIFAVVFLVGVLGNALVVWVTAFEAKRTINAIWFLNLAVADFLSCLALPILFTSIVQHHHWPFGGAACSILPSLILLNMYASILLLATISADRFLLVFKPIWCQNFRGAGLAWIACAVAWGLALLLTIPSFLYRVVREEYFPPKVLCGVDYSHDKRRERAVAIVRLVLGFLWPLLTLTICYTFILLRTWSRRATRSTKTLKVVVAVVASFFIFWLPYQVTGIMMSFLEPSSPTFLLLKKLDSLCVSFAYINCCINPIIYVVAGQGFQGRLRKSLPSLLRNVLTEESVVRESKSFTRSTVDTMAQKTQAV
notes: human C5a receptor (C5aR), expressed on transfected RBL-2H3 or CHO cells; also called hC5aR; RBL-C5aR; source: RBL-2H3 or CHO cells, transfected by electroporation, on cells

Legend:
[1] = target: T1, FITC-labelled recombinant CHIPS_(28–149) (Staphylococcus aureus N315 (MRSA), UniProt A6QIG7 28-149, FITC label (site not stated)); assay: flow cytometry on cells; kinetics: 300 nM FITC-CHIPS(28-149) added to C5aR-transfected RBL cells, dissociation started with 14 μM unlabelled CHIPS(28-149); Kd from kobs and koff, five experiments; settings: one partner purified
T1 construct: three N-terminal residues, GlyAlaMet, left from the vector after TEV cleavage; The discussion once calls the labelled protein of the serum assay rCHIPS_(26–141); results and methods say 28-149; also called FITC-rCHIPS_(28–149); FITC-CHIPS_(28–149); source: E. coli BL21 (DE3), purified (glutathione sepharose 4B, TEV cleavage, Mono S), FITC-labelled; not shown: GST, N-terminal, cleaved

[2] = target: B1; assay: flow cytometry on cells; competition: RBL cells transfected with human C5aR pre-treated with unlabelled CHIPS or human C5a, then 210 nM FITC-rCHIPS(28-149); cell-associated fluorescence; settings: one partner purified
[3] = target: T2, recombinant chemotaxis inhibitory protein of Staphylococcus aureus, residues 28-149 (rCHIPS_(28–149)) (Staphylococcus aureus N315 (MRSA), UniProt A6QIG7 28-149); assay: NMR titration; 1H-15N HSQC of 0.7 mM 15N-CHIPS(28-149), unlabelled lyophilized ligand added to ligand:CHIPS ratios 0, 1:2, 3:4, 1:1, 5:4; 25 °C, 100 mM phosphate pH 7.0, 200 mM NaCl, 1 mM DTT, 0.5 mM EDTA; Kd from fast-exchange shift curves, averaged over residues; settings: both partners purified
T2 construct: three N-terminal residues, GlyAlaMet, left from the vector after TEV cleavage; Uniformly 15N-labelled (isotope only) in the NMR titrations; unlabelled in ITC and in the cell assays; also called unlabelled CHIPS; ^15N-labelled CHIPS_(28–149); source: E. coli BL21 (DE3), purified (glutathione sepharose 4B, TEV cleavage, Mono S); not shown: GST, N-terminal, cleaved

[4] = target: T2, recombinant chemotaxis inhibitory …; assay: ITC; CHIPS(28-149) (0.2 mM) titrated with the peptides; non-linear regression; data not shown; settings: both partners purified

With B1 the Kd [1] was 7.22 ± 6.66 nM.

B2: recombinant human C5a protein (rh-C5a) (ligand)
chain: TLQKKIEEIAAKYKHSVVKKCCYDGACVNNDETCEQRAARISLGPRCIKAFTECCVVASQLRANISHKDMQLGR
notes: source: expressed and purified according to a previously described protocol (Paczkowski et al., 1999)
B2 was tested, and the IC50 [2] was ~250 nM.

B3: human C5aR peptide of the N-terminal extracellular region M1-D37 with additional -APAPAC on the C-terminus (hC5aR_(1–37)) (peptide)
peptide: MDSFNYTTPDYGHYDDKDTLDLNTPVDKTSNTLRVPDAPAPAC
notes: human C5a receptor, N-terminal extracellular region, residues M1-D37; also called human C5aR_(1–37) peptide; source: gift from Dr M. Barker, Division of Genomic Medicine, Sheffield
Work on B3 yielded a Kd [3] of 8.25 µM, a Ka [4] of 25000 M⁻¹ and a Kd [4] of ~40 µM. The “stoichiometry N” value [4] was 1.4 ± 0.8.
